Test results: the supplement of paper PMC9112550, “Optimization of the antimicrobial peptide Bac7 by deep mutational scanning” (BMC Biology, 2022)

Tested on: Escherichia coli TOP10
Assay: shrunken log2 fold change of peptide-encoding DNA abundance (4.5 h post-induction vs induction); higher = less antimicrobial activity (less host growth inhibition)
Details: time post-induction: 4.5 h; library: site-saturation at positions 5, 18, 19, 20
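Also: peptides expressed intracellularly from a pBAD plasmid library in pooled LB shake-flask culture, induced with 0.3% L-arabinose, DNA abundance read by NGS, three biological replicates, DESeq2 with apeglm shrinkage.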

Sequence | shrunken log2 fold change
RRIRKRPPRLPRPRPRPTSAPRP | 0.797
RRIRKRPPRLPRPRPRPTSLPRP | -0.00423
RRIRKRPPRLPRPRPRPTTTPRP | 0.494
RRIRKRPPRLPRPRPRPTWGPRP | 0.317
RRIRKRPPRLPRPRPRPTYCPRP | 0.135
RRIRKRPPRLPRPRPRPTYKPRP | -0.198
RRIRKRPPRLPRPRPRPTYRPRP | 0.647
RRIRKRPPRLPRPRPRPVAAPRP | 0.721
RRIRKRPPRLPRPRPRPVAIPRP | 0.265
RRIRKRPPRLPRPRPRPVCFPRP | 0.54
RRIRKRPPRLPRPRPRPVCHPRP | 0.199
RRIRKRPPRLPRPRPRPVCNPRP | -0.148
RRIRKRPPRLPRPRPRPVEEPRP | 0.695
RRIRKRPPRLPRPRPRPVGMPRP | 0.554
RRIRKRPPRLPRPRPRPVHCPRP | 0.0295
RRIRKRPPRLPRPRPRPVHHPRP | -0.0438
RRIRKRPPRLPRPRPRPVHMPRP | -0.0183
RRIRKRPPRLPRPRPRPVISPRP | -0.00841
RRIRKRPPRLPRPRPRPVKTPRP | 0.141
RRIRKRPPRLPRPRPRPVLFPRP | 0.327
RRIRKRPPRLPRPRPRPVMFPRP | 0.124
RRIRKRPPRLPRPRPRPVPAPRP | 0.648
RRIRKRPPRLPRPRPRPVRKPRP | 0.0395
RRIRKRPPRLPRPRPRPVSHPRP | 0.0254
RRIRKRPPRLPRPRPRPVSIPRP | -0.0178

Sequence | shrunken log2 fold change
RRIRKRPPRLPRPRPRPVSMPRP | 0.224
RRIRKRPPRLPRPRPRPVTRPRP | 0.754
RRIRKRPPRLPRPRPRPVVSPRP | -0.292
RRIRKRPPRLPRPRPRPVWAPRP | 0.316
RRIRKRPPRLPRPRPRPVWKPRP | 0.138
RRIRKRPPRLPRPRPRPVYSPRP | 0.0204
RRIRKRPPRLPRPRPRPWFCPRP | -0.0352
RRIRKRPPRLPRPRPRPWFRPRP | 0.00108
RRIRKRPPRLPRPRPRPWGAPRP | 0.449
RRIRKRPPRLPRPRPRPWGMPRP | 0.142
RRIRKRPPRLPRPRPRPWHCPRP | 0.0258
RRIRKRPPRLPRPRPRPWKQPRP | 0.0185
RRIRKRPPRLPRPRPRPWKWPRP | -0.0168
RRIRKRPPRLPRPRPRPWMPPRP | 0.0548
RRIRKRPPRLPRPRPRPWNCPRP | 0.0387
RRIRKRPPRLPRPRPRPWNEPRP | -0.0249
RRIRKRPPRLPRPRPRPWNSPRP | 0.0199
RRIRKRPPRLPRPRPRPWPRPRP | 0.264
RRIRKRPPRLPRPRPRPWQMPRP | 0.0764
RRIRKRPPRLPRPRPRPWRGPRP | 0.155
RRIRKRPPRLPRPRPRPWTKPRP | -0.0423
RRIRKRPPRLPRPRPRPWVPPRP | 0.481
RRIRKRPPRLPRPRPRPWYVPRP | -0.958
RRIRKRPPRLPRPRPRPYDHPRP | -0.084
RRIRKRPPRLPRPRPRPYDLPRP | 0.115

Sequence | shrunken log2 fold change
RRIRKRPPRLPRPRPRPYDQPRP | 0.0359
RRIRKRPPRLPRPRPRPYFIPRP | -0.515
RRIRKRPPRLPRPRPRPYFRPRP | 0.123
RRIRKRPPRLPRPRPRPYFVPRP | -0.264
RRIRKRPPRLPRPRPRPYFYPRP | -0.274
RRIRKRPPRLPRPRPRPYGFPRP | -0.294
RRIRKRPPRLPRPRPRPYKYPRP | -0.00882
RRIRKRPPRLPRPRPRPYMAPRP | -0.0833
RRIRKRPPRLPRPRPRPYNGPRP | -0.00151
RRIRKRPPRLPRPRPRPYQKPRP | -0.00762
RRIRKRPPRLPRPRPRPYQRPRP | -0.0062
RRIRKRPPRLPRPRPRPYQYPRP | -0.0576
RRIRKRPPRLPRPRPRPYRRPRP | -0.105
RRIRKRPPRLPRPRPRPYSKPRP | -0.608
RRIRKRPPRLPRPRPRPYTFPRP | -0.264
RRIRKRPPRLPRPRPRPYTHPRP | -0.376
RRIRKRPPRLPRPRPRPYVWPRP | -0.36
RRIRKRPPRLPRPRPRPYWAPRP | -0.448
RRIRKRPPRLPRPRPRPYWEPRP | 0.0616
RRIRLRPPRLPRPRPRPAEKPRP | -0.0786
RRIRLRPPRLPRPRPRPAEMPRP | -0.111
RRIRLRPPRLPRPRPRPAEPPRP | 0.188
RRIRLRPPRLPRPRPRPAEQPRP | 0.0174
RRIRLRPPRLPRPRPRPAERPRP | 0.139
RRIRLRPPRLPRPRPRPAETPRP | 0.0382
